Data set [1] is described as follows: Specific activity of recombinant cathepsin S. To be noted: Z-VVR-AMC fluorimetric and Z-FR-pNA colorimetric assays. Type of data set: biochemical. The method, then:
Recombinant human cathepsin S was produced as follows. The human cathepsin S proprotein coding region was isolated by PCR using the forward and reverse primers […] CCTG and […] and a template of plasmid DNA containing the entire coding sequence of human cathepsin S. The PCR product was cut with Nco I and Xho I, and cloned into the pTYB4 expression vector from New England Biolabs for expression in E.coli. Cells were grown in LB medium induced with 0.3 mM IPTG, harvested by centrifugation, resuspended in lysis buffer A (0.5 M NaCl, 0.05 M Tris, 5 mM EDTA, pH 8.0) and lysed in a French press. The lysate was centrifuged and the protein was found predominantly in inclusion bodies which were dissolved in buffer B (10 mM DTT and 8 M urea), and refolded in the presence of buffer B containing 0.7 M L-arginine, 0.01 M glutathione, 0.001 M glutathione disulfide, and 0.005 M EDTA as described. The refolded procathepsin S was concentrated by Minimate Concentrator (Pall Corporation) and washed three times with buffer A. It was activated after adjusting to pH 4.5 with acetic acid, adding DTT to 5 µM and incubating at 37°C for 3 hours. […] The specific activity of cathepsin S was assayed using Z-VVR-AMC in fluorimetric and Z-FR-pNA in colorimetric assays[22] and determined to be 10,000 mU/mg protein.

Data set [2] deals with PAR2M3 (leucine38 and glycine40 to alanines). The data set is described as follows: Calcium imaging in HeLa cells transfected with PAR2M3. Type of data set: cell-based, human. To be noted: cathepsin S 2 µM, KVDGTS 100 µM. How it is done:
(§1) Human PAR2 cDNA was cloned as an Xho I-Hind III fragment (1206 bp) into pcDNA3.1(−). 10 µg of DNA were diluted into 0.5 ml of DMEM and mixed with 0.5 ml of DMEM containing 10 µl of Lipofectamine 2000 transfection reagent and incubated at room temperature for 20 minutes. HeLa cells were grown to confluence, trypsinized and 1×10^6 cells were pelleted in a 15 ml tube by centrifugation at 1000 rpm for 5 minutes. The DMEM-Lipofectamine 2000-DNA mixture (1 ml) was added to the cell pellet, resuspended gently and incubated at room temperature for 20 minutes. Four ml of complete DMEM with 10% FBS were added to the tube, mixed by inverting the tube several times, plated into a 96-well glass bottom plate at 20,000 cells/well, and placed in a 37°C CO2 incubator. HeLa cells transfected with vector alone or salmon sperm DNA (shown in the figures) were plated as a control. The medium was aspirated two days after transfection. Fura-2 was used as a ratiometric calcium-sensitive indicator as follows. […]
(§2) Imaging was performed using a Zeiss Axiovert 200 M microscope platform equipped with a flipping filter wheel for ratiometric imaging. […] The software later analyzed all images taken during each excitation period. Typically, ratiometric changes were measured in 10–20 cells in each image. An average of the fluorescence of the cells in each image was calculated and plotted against time in seconds. […]

Data set [3] relates to PAR2M1 (leucine38 to alanine). The data set is described as follows: Calcium imaging in HeLa cells transfected with PAR2M1. It is filed as cell-based, human. The conditions noted are these: cathepsin S 2 µM, KVDGTS 100 µM. How it is done: as §1, §2
Data set [4] deals with NHEKs which endogenously express PAR2. The data set is described as follows: Calcium imaging in normal human epidermal keratinocytes (NHEKs). Type of data set: cell-based.
From the text: HeLa cells were obtained from the ATCC and maintained in DMEM supplemented with fetal bovine serum (Fisher Biochemicals), L-glutamine, penicillin and streptomycin. Normal human epidermal keratinocytes (NHEKs) were harvested from neonatal foreskin and maintained in Keratinocyte Serum-Free media supplemented with epidermal growth factor, bovine pituitary extract, L-glutamine, penicillin and streptomycin. All reagents were obtained from Invitrogen unless otherwise noted.
as §1, with “follows. 100 µl of complete DMEM containing 2 µM of Fura-2 were added to each well and left at room temperature in the dark for 1 hr.” for “follows.”
Imaging was performed using a Zeiss Axiovert 200 M microscope platform equipped with a flipping filter wheel for ratiometric imaging. […] The software later analyzed all images taken during each excitation period. Typically, ratiometric changes were measured in 10–20 cells in each image. An average of the fluorescence of the cells in each image was calculated and plotted against time in seconds.

The test system of data set [5] is salmon sperm transfected HeLa cells. Briefly: IP1 (IP-One HTRF) assay in salmon sperm DNA-transfected HeLa cells. To be noted: cathepsin S 1 µM, 1 hour, 37°C. It is filed as cell-based. The method, then: To determine the effect of PAR2 activation on Gq stimulation, we measured IP1, a downstream metabolite of IP3, using the IP-One HTRF assay from Cis Bio, Medford, MA. HeLa cells were transfected with salmon sperm DNA or PAR2 cDNA as described above, plated in 10 cm culture dishes and incubated at 37°C with 5% CO2. After 24 hours, the cells were trypsinized, counted, plated into 96-well plates at 80,000 cells/well and incubated for another 24 hours. The medium was replaced with a stimulation buffer containing LiCl, per the instructions of the manufacturer. Ligands, including cathepsin S (1 µM), KVDGTS (100 µM) and SLIGRL (10 µM) were added to wells and incubated at 37°C for 1 hour and IP1 levels determined. This assay was performed on multiple wells containing each ligand on three occasions. Error bars represent SEM.
(In general: In TR-FRET formats the signal depends on donor and acceptor labels being close together.)

Entries after “also recorded” stand apart in the source; their conditions may differ.

B1: cathepsin S: Recombinant human cathepsin S, cysteine protease, expressed in E.coli, refolded and activated (protein, UniProt P25774 115-331, looked up)
Cathepsin S: LPDSVDWREKGCVTEVKYQGSCGACWAFSAVGALEAQLKLKTGKLVSLSAQNLVDCSTEKYGNKGCNGGFMTTAFQYIIDNKGIDSDASYPYKAMDQKCQYDSKYRAATCSKYTELPYGREDVLKEAVANKGPVSVGVDARHPSFFLYRSGVYYEPSCTQNVNHGVLVVGYGDLNGKEYWLVKNSWGHNFGEEGYIRMARNKGNHCGIASFPSYPEI
Regarding B1, in data set [1], the specific activity is on record as 10,000 mU/mg protein. In data set [2], the “calcium response on PAR2M3 (in words)” value is given as “did not induce calcium responses; also recorded: not PAR2M2 or PAR2M3”. Besides, the “calcium response on PAR2M1 (in words)” value in data set [3] was “induced normal calcium responses; also recorded: able to stimulate native PAR2 and PAR2M1”. Further, the “calcium response in NHEKs (in words)” value in data set [4] (KVDGTS 100 µM, cathepsin S 2 µM) was “activated NHEKs”. Moreover, the “calcium response to the substance as second agent after KVDGTS (in words)” value in data set [4] (NHEKs, KVDGTS 100 µM then cathepsin S 2 µM, second agent at 300 s) was “attenuated”. Besides, the “effect as first agent on calcium response to second agent (in words)” value in data set [4] (NHEKs, KVDGTS 100 µM, cathepsin S 2 µM, second agent at 300 s) is on record as “abolishes the response to the subsequent addtion of KVDGTS”. In addition, the “IP1 level in salmon sperm transfected cells (in words)” value in data set [5] is on record as “no effect above baseline IP1 levels”.

The record behind these values is article PMC4070910, “Cathepsin S Signals via PAR2 and Generates a Novel Tethered Ligand Receptor Agonist” (PLoS ONE, 2014).
